Data as given in the supplement of paper PMC9112550, “Optimization of the antimicrobial peptide Bac7 by deep mutational scanning” (BMC Biology, 2022).

Tested on: Escherichia coli TOP10
Test: shrunken log2 fold change of peptide-encoding DNA abundance (4.5 h post-induction vs induction); higher = less antimicrobial activity (less host growth inhibition)
Settings: time post-induction: 4.5 h; library: site-saturation at positions 5, 18, 19, 20
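Further: peptides expressed intracellularly from a pBAD plasmid library in pooled LB shake-flask culture, induced with 0.3% L-arabinose, DNA abundance read by NGS, three biological replicates, DESeq2 with apeglm shrinkage.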

| Sequence | shrunken log2 fold change |
| --- | --- |
| RRIRPRPPRLPRPRPRPIQQPRP | 0.000308 |
| RRIRIRPPRLPRPRPRPICDPRP | -0.412 |
| RRIRYRPPRLPRPRPRPPFKPRP | -0.554 |
| RRIRRRPPRLPRPRPRPFAAPRP | 0.98 |
| RRIRFRPPRLPRPRPRPNNIPRP | -1.04 |
| RRIRRRPPRLPRPRPRPDCLPRP | -0.136 |
| RRIRARPPRLPRPRPRPDFKPRP | 0.00723 |
| RRIRCRPPRLPRPRPRPCAQPRP | 0.101 |
| RRIRYRPPRLPRPRPRPNEKPRP | -0.0256 |
| RRIRDRPPRLPRPRPRPIIFPRP | -0.00292 |
| RRIRKRPPRLPRPRPRPWSDPRP | -0.0989 |
| RRIRARPPRLPRPRPRPSAKPRP | 0.471 |
| RRIRWRPPRLPRPRPRPDFPPRP | -0.0386 |
| RRIRSRPPRLPRPRPRPFDLPRP | -0.419 |
| RRIRQRPPRLPRPRPRPFPNPRP | -0.0586 |
| RRIRNRPPRLPRPRPRPGTDPRP | -0.0425 |
| RRIRQRPPRLPRPRPRPSLQPRP | -0.154 |
| RRIRWRPPRLPRPRPRPDQPPRP | 0.234 |
| RRIRVRPPRLPRPRPRPMDLPRP | 0.156 |
| RRIRWRPPRLPRPRPRPTERPRP | -0.124 |
| RRIRRRPPRLPRPRPRPVCGPRP | 0.75 |
| RRIRIRPPRLPRPRPRPNWNPRP | -0.388 |
| RRIRQRPPRLPRPRPRPWVPPRP | -0.152 |
| RRIRQRPPRLPRPRPRPPSIPRP | -0.0422 |
| RRIRNRPPRLPRPRPRPHPVPRP | -0.269 |

| Sequence | shrunken log2 fold change |
| --- | --- |
| RRIRERPPRLPRPRPRPQLHPRP | -0.216 |
| RRIRTRPPRLPRPRPRPESVPRP | -0.0229 |
| RRIRFRPPRLPRPRPRPAMCPRP | -0.596 |
| RRIRMRPPRLPRPRPRPGDEPRP | 0.818 |
| RRIRHRPPRLPRPRPRPYCPPRP | -0.0225 |
| RRIRDRPPRLPRPRPRPGNYPRP | -0.0159 |
| RRIRQRPPRLPRPRPRPLVPPRP | 0.253 |
| RRIRQRPPRLPRPRPRPYDFPRP | -0.543 |
| RRIRYRPPRLPRPRPRPNWRPRP | 0.326 |
| RRIRFRPPRLPRPRPRPLTKPRP | -0.2 |
| RRIRQRPPRLPRPRPRPCSNPRP | -0.174 |
| RRIRYRPPRLPRPRPRPTGLPRP | -0.101 |
| RRIRTRPPRLPRPRPRPMVRPRP | -0.0017 |
| RRIRLRPPRLPRPRPRPECFPRP | 0.226 |
| RRIRYRPPRLPRPRPRPLTTPRP | -0.404 |
| RRIRMRPPRLPRPRPRPELHPRP | 0.397 |
| RRIRNRPPRLPRPRPRPTSSPRP | 0.211 |
| RRIRARPPRLPRPRPRPSPPPRP | 0.67 |
| RRIRKRPPRLPRPRPRPPCMPRP | -0.0208 |
| RRIRLRPPRLPRPRPRPAVYPRP | 0.00171 |
| RRIRRRPPRLPRPRPRPFEIPRP | -0.00184 |
| RRIRVRPPRLPRPRPRPCPGPRP | 0.00413 |
| RRIRGRPPRLPRPRPRPRFHPRP | 0.0803 |
| RRIRGRPPRLPRPRPRPGKAPRP | 0.529 |
| RRIRKRPPRLPRPRPRPSVGPRP | 0.0485 |

| Sequence | shrunken log2 fold change |
| --- | --- |
| RRIRWRPPRLPRPRPRPTMCPRP | -0.00672 |
| RRIRSRPPRLPRPRPRPAVSPRP | 0.105 |
| RRIRARPPRLPRPRPRPRPRPRP | 1.99 |
| RRIRLRPPRLPRPRPRPSDRPRP | -0.147 |
| RRIRNRPPRLPRPRPRPYCRPRP | -0.982 |
| RRIRIRPPRLPRPRPRPLPVPRP | 0.094 |
| RRIRGRPPRLPRPRPRPCRTPRP | 0.225 |
| RRIRYRPPRLPRPRPRPKGQPRP | 0.0405 |
| RRIRQRPPRLPRPRPRPNKIPRP | -0.388 |
| RRIRMRPPRLPRPRPRPMVYPRP | 0.0294 |
| RRIRLRPPRLPRPRPRPWWCPRP | -0.0878 |
| RRIRRRPPRLPRPRPRPTFEPRP | 0.358 |
| RRIRHRPPRLPRPRPRPCLFPRP | -0.229 |
| RRIRMRPPRLPRPRPRPWFGPRP | 0.134 |
| RRIRHRPPRLPRPRPRPLKDPRP | -0.361 |
| RRIRVRPPRLPRPRPRPEFVPRP | -0.262 |
| RRIRFRPPRLPRPRPRPSDCPRP | -0.476 |
| RRIRPRPPRLPRPRPRPMSQPRP | 0.0517 |
| RRIRRRPPRLPRPRPRPEDNPRP | 0.066 |
| RRIRTRPPRLPRPRPRPTIVPRP | -0.0242 |
| RRIRRRPPRLPRPRPRPSYAPRP | 0.0616 |
| RRIRTRPPRLPRPRPRPTRFPRP | 0.463 |
| RRIRLRPPRLPRPRPRPNPHPRP | -0.07 |
| RRIRGRPPRLPRPRPRPKQWPRP | 0.28 |
| RRIRRRPPRLPRPRPRPTPRPRP | 2.37 |

| Sequence | shrunken log2 fold change |
| --- | --- |
| RRIRQRPPRLPRPRPRPTVMPRP | 0.0964 |
| RRIRCRPPRLPRPRPRPCMVPRP | -0.587 |
| RRIRPRPPRLPRPRPRPECGPRP | 0.525 |
| RRIRRRPPRLPRPRPRPLKNPRP | 0.29 |
| RRIRTRPPRLPRPRPRPLMTPRP | 0.0717 |
| RRIRHRPPRLPRPRPRPEVTPRP | 0.05 |
| RRIRIRPPRLPRPRPRPQLNPRP | -0.499 |
| RRIRIRPPRLPRPRPRPGAEPRP | 0.0273 |
| RRIRYRPPRLPRPRPRPNWNPRP | -1.09 |
| RRIRHRPPRLPRPRPRPHASPRP | 0.00288 |
| RRIRSRPPRLPRPRPRPRAFPRP | 0.304 |
| RRIRVRPPRLPRPRPRPKRIPRP | -0.114 |
| RRIRGRPPRLPRPRPRPVIPPRP | 0.000617 |
| RRIRHRPPRLPRPRPRPAGFPRP | -0.207 |
| RRIRPRPPRLPRPRPRPFILPRP | -0.582 |
| RRIRLRPPRLPRPRPRPASSPRP | -0.0827 |
| RRIRGRPPRLPRPRPRPEPDPRP | 1.27 |
| RRIRRRPPRLPRPRPRPIYKPRP | -0.394 |
| RRIRIRPPRLPRPRPRPCQRPRP | -0.268 |
| RRIRPRPPRLPRPRPRPDEHPRP | -0.205 |
| RRIRIRPPRLPRPRPRPGLNPRP | 1 |
| RRIRCRPPRLPRPRPRPPGIPRP | 3.39 |
| RRIRLRPPRLPRPRPRPCECPRP | 0.202 |
| RRIRGRPPRLPRPRPRPGHAPRP | 0.801 |
| RRIRYRPPRLPRPRPRPYLQPRP | -1.9 |

| Sequence | shrunken log2 fold change |
| --- | --- |
| RRIRYRPPRLPRPRPRPETRPRP | 0.0147 |
| RRIRPRPPRLPRPRPRPEHTPRP | -0.112 |
| RRIRRRPPRLPRPRPRPDVIPRP | -0.068 |
| RRIRKRPPRLPRPRPRPMTFPRP | -0.00803 |
| RRIRHRPPRLPRPRPRPFFMPRP | -0.564 |
| RRIRGRPPRLPRPRPRPRNIPRP | 0.0648 |
| RRIRKRPPRLPRPRPRPYVTPRP | -0.401 |
| RRIRGRPPRLPRPRPRPLTWPRP | 0.462 |
| RRIRHRPPRLPRPRPRPLHVPRP | 0.146 |
| RRIRCRPPRLPRPRPRPLPHPRP | 0.102 |
| RRIRVRPPRLPRPRPRPLVMPRP | -0.902 |
| RRIRERPPRLPRPRPRPSPYPRP | -0.277 |
| RRIRVRPPRLPRPRPRPTFAPRP | 0.294 |
| RRIRERPPRLPRPRPRPIFEPRP | 0.0601 |
| RRIRPRPPRLPRPRPRPGIAPRP | 0.218 |
| RRIRLRPPRLPRPRPRPPDDPRP | 0.397 |
| RRIRVRPPRLPRPRPRPVLQPRP | 0.164 |
| RRIRVRPPRLPRPRPRPCWDPRP | -0.154 |
| RRIRKRPPRLPRPRPRPLWEPRP | 0.163 |
| RRIRQRPPRLPRPRPRPYYAPRP | -0.898 |
| RRIRLRPPRLPRPRPRPHKRPRP | 0.0273 |
| RRIRERPPRLPRPRPRPGHVPRP | -0.00285 |
| RRIRWRPPRLPRPRPRPDRQPRP | -0.018 |
| RRIRERPPRLPRPRPRPKNIPRP | -0.723 |
| RRIRDRPPRLPRPRPRPWQLPRP | 0.0822 |

| Sequence | shrunken log2 fold change |
| --- | --- |
| RRIRVRPPRLPRPRPRPGDPPRP | 0.172 |
| RRIRMRPPRLPRPRPRPDEAPRP | 2.2 |
| RRIRGRPPRLPRPRPRPTPDPRP | 1.24 |
| RRIRQRPPRLPRPRPRPCGNPRP | 0.0751 |
| RRIRFRPPRLPRPRPRPCRKPRP | 0.0312 |
| RRIRMRPPRLPRPRPRPKHEPRP | 0.767 |
| RRIRFRPPRLPRPRPRPDEIPRP | -0.022 |
| RRIRRRPPRLPRPRPRPVKCPRP | 0.23 |
| RRIRCRPPRLPRPRPRPIWFPRP | 0.21 |
| RRIRPRPPRLPRPRPRPKSLPRP | -0.015 |
| RRIRPRPPRLPRPRPRPTFTPRP | 0.101 |
| RRIRFRPPRLPRPRPRPGTQPRP | -0.0219 |
| RRIRFRPPRLPRPRPRPAPDPRP | 0.323 |
| RRIRRRPPRLPRPRPRPQNQPRP | 0.0537 |
| RRIRWRPPRLPRPRPRPWAEPRP | 0.267 |
| RRIRHRPPRLPRPRPRPEYPPRP | 0.0664 |
| RRIRQRPPRLPRPRPRPGYTPRP | -0.912 |
| RRIRVRPPRLPRPRPRPSMTPRP | -0.175 |
| RRIRRRPPRLPRPRPRPIQLPRP | -0.407 |
| RRIRARPPRLPRPRPRPLYPPRP | -0.221 |
| RRIRMRPPRLPRPRPRPVWRPRP | 0.947 |
| RRIRKRPPRLPRPRPRPEDEPRP | 2.15 |
| RRIRMRPPRLPRPRPRPTWPPRP | 0.837 |
| RRIRLRPPRLPRPRPRPKTWPRP | 0.108 |
| RRIRMRPPRLPRPRPRPYIKPRP | -0.86 |
